The results in this text go back to US20200148732A1 (UNIVERSITY OF COPENHAGEN, published 2020).

Where no end group is shown, it is not given here.

The target of assay [1] is T1, TONSL Ankyrin Repeat Domain (ARD, residues 512-692), purified recombinant (human, UniProt Q96HA7 512-692).
T1 construct: Expressed as a GST fusion in E. coli; Used in ITC, peptide pull-down and native MS; also called TONSL ARD; TONSL-ARD
T1 sequence: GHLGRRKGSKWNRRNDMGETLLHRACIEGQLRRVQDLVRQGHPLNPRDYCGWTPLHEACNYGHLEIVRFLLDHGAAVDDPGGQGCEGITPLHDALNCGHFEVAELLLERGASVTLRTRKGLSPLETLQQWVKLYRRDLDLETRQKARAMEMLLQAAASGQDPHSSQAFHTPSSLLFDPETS
In words: native MS, apparent Kd.

The target in assay [2] is T1, TONSL Ankyrin Repeat Domain (ARD, …). In words: native MS, abundance of the 1:1 protein-peptide complex, 10 µM TONSL ARD. As for the experimental part:
(§1) The mass spectrometry (MS) analysis were carried out on an electrospray time-of-flight mass spectrometer (LCT, Waters, Manchester, UK) equipped with an automated chip-based nanoESI device (Triversa Nanomate, Advion Biosciences, Ithaca, N.Y.). External calibration was done in the positive ion mode over the mass range m/z 200-6000 using the multiply charged ions produced by 0.4 μM horse heart myoglobin solution diluted in water/acetonitrile 50/50 mixture acidified with 0.5% (v/v) formic acid. […] The protein concentration was set to 10 μM and different peptide concentrations ranging from 1 to 5 molar equivalents were added. Incubations were performed at room temperature for 15 min. Mass spectra were recorded using reduced cone voltage (Vc=50 V) and elevated interface pressure (Pi=5 mbar) which correspond to fine-tuned instrumental settings providing sufficient ion desolvation while preserving the integrity of weak non-covalent complexes in the gas phase. Micromass MassLynx 4.1 was used for data acquisition and processing.
The proportion of 1:1 stoichiometry complex is calculated according to the following equation: […]

For assay [3] the target is unchanged. In words: native MS, titration Kd (constant peptide to protein ratio, decreasing protein concentration). The method, then:
as §1, with “The protein concentration was set to 10 μM and different peptide concentrations ranging from 1 to 5 molar equivalents were added.” left out
(§2) This protein proportion is used to calculate the bound protein, the free protein and the free peptide concentrations. The Kd is calculated by using the following equation for each protein/peptide concentration. The final Kd for each peptide is the average of the Kd at different protein/peptide ratio.

Assay [4] has as its target T2, TONSL acidic stretch and ARD (aa. 450-692) (human, UniProt Q96HA7 450-692).
T2 sequence: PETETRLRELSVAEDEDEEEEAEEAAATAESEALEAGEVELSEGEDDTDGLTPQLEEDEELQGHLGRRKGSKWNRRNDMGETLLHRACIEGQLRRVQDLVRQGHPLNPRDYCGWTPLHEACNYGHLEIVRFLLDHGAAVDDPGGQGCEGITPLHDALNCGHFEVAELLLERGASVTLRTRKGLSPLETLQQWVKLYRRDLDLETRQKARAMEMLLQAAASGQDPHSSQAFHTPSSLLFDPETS
Kind of assay: ITC, peptide injected into TONSL (450-692); the value stands without a heading in the legend box, in the column where the other peptide has NB.

Assay [5] deals with T1, TONSL Ankyrin Repeat Domain (ARD, …). Kind of assay: ITC, peptide injected into TONSL ARD. In general terms: ITC needs no label: the signal is the heat of the interaction.
Assay [6] has as its target T3, MCM2 Histone-binding Domain (HBD, residues 61-130) (human, UniProt P49736 61-130).
T3 construct: In the crystal it is linked to TONSL ARD by the G4 linker; also called MCM2 HBD
In words: GST pull-down of recombinant H3-H4 and MCM2 HBD with GST-TONSL ARD, stained gel (MCM2 HBD offered together with H3-H4).

The target of assay [7] is T1, TONSL Ankyrin Repeat Domain (ARD, …). In words: native MS, titration Kd (constant peptide to protein ratio, decreasing protein concentration); Titration Kd; no apparent Kd given for Example 11. The method, then: as §1, with “The protein concentration was set to 10 μM and different peptide concentrations ranging from 1 to 5 molar equivalents were added.” left out
as §2

T3 sequence (P49736 61-130): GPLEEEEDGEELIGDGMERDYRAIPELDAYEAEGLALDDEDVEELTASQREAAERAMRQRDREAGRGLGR

In the case of KGGAKRHRKVLR-NH2 [Lys-Gly-Gly-Ala-Lys-Arg-His-Arg-Lys-Val-Leu-Arg-NH2, Example 13], the Kd turned out to be 100 nM in assay [1] and 310 nM in assay [3]. The “% P1L1” value in assay [2] turned out to be 89.9%.
For KGGAARHRKVLR-NH2 (H4 12-23 with Lys16 replaced by Ala) [Lys-Gly-Gly-Ala-Ala-Arg-His-Arg-Lys-Val-Leu-Arg-NH2, Example 15], the Kd in assay [1] is 400 nM. Besides, in assay [2], the “% P1L1” value was 81.4%.
As for KGGAKRHAKVLR-NH2 (H4 12-23 with Arg19 replaced by Ala) [Lys-Gly-Gly-Ala-Lys-Arg-His-Ala-Lys-Val-Leu-Arg-NH2, Example 14], the Kd in assay [1] was determined as 1000 nM; in assay [3], 960 nM. Further, the “% P1L1” value in assay [2] was determined as 73.3%.

B1: histone H4 (residues 9-25) peptide, unmodified (peptide)
peptide: GLGKGGAKRHRKVLRDN
notes: Synthesised at Tufts University Core Facility; also called H4 (9-25); H4 tail (9-25)
Take B1: the Kd in assay [4] came out at 1500 nM.
As to GLGKGGAKRWRKVLRDN (His18 mutated to Trp18) [histone H4 (residues 9-25) peptide H18W], the binding result in assay [5] is listed as “no binding (tested: molar ratio about 1.8)”.

B2: GST-TONSL ARD D559A (other)
chain: GHLGRRKGSKWNRRNDMGETLLHRACIEGQLRRVQDLVRQGHPLNPRAYCGWTPLHEACNYGHLEIVRFLLDHGAAVDDPGGQGCEGITPLHDALNCGHFEVAELLLERGASVTLRTRKGLSPLETLQQWVKLYRRDLDLETRQKARAMEMLLQAAASGQDPHSSQAFHTPSSLLFDPETS
notes: not shown: GST tag of the pGEX-6P-1 vector
For the molecule B2, the binding result in assay [6] is given as “no binding”.

B3: GST-TONSL ARD D604A (other)
chain: GHLGRRKGSKWNRRNDMGETLLHRACIEGQLRRVQDLVRQGHPLNPRDYCGWTPLHEACNYGHLEIVRFLLDHGAAVDDPGGQGCEGITPLHAALNCGHFEVAELLLERGASVTLRTRKGLSPLETLQQWVKLYRRDLDLETRQKARAMEMLLQAAASGQDPHSSQAFHTPSSLLFDPETS
notes: as for B2
Take B3: the binding result in assay [6] is “no binding”.

B4: GST-TONSL ARD E530A (other)
chain: GHLGRRKGSKWNRRNDMGATLLHRACIEGQLRRVQDLVRQGHPLNPRDYCGWTPLHEACNYGHLEIVRFLLDHGAAVDDPGGQGCEGITPLHDALNCGHFEVAELLLERGASVTLRTRKGLSPLETLQQWVKLYRRDLDLETRQKARAMEMLLQAAASGQDPHSSQAFHTPSSLLFDPETS
notes: as for B2
With B4, the binding result in assay [6] was “no binding”.

B5: GST-TONSL ARD E568A (other)
chain: GHLGRRKGSKWNRRNDMGETLLHRACIEGQLRRVQDLVRQGHPLNPRDYCGWTPLHAACNYGHLEIVRFLLDHGAAVDDPGGQGCEGITPLHDALNCGHFEVAELLLERGASVTLRTRKGLSPLETLQQWVKLYRRDLDLETRQKARAMEMLLQAAASGQDPHSSQAFHTPSSLLFDPETS
notes: as for B2
Regarding B5, the binding result in assay [6] is on record as “no binding”.

B6: GST-TONSL ARD N571A (other)
chain: GHLGRRKGSKWNRRNDMGETLLHRACIEGQLRRVQDLVRQGHPLNPRDYCGWTPLHEACAYGHLEIVRFLLDHGAAVDDPGGQGCEGITPLHDALNCGHFEVAELLLERGASVTLRTRKGLSPLETLQQWVKLYRRDLDLETRQKARAMEMLLQAAASGQDPHSSQAFHTPSSLLFDPETS
notes: as for B2
In the case of B6, the binding result in assay [6] is on record as “no binding”.

B7: GST-TONSL ARD W563A (other)
chain: GHLGRRKGSKWNRRNDMGETLLHRACIEGQLRRVQDLVRQGHPLNPRDYCGATPLHEACNYGHLEIVRFLLDHGAAVDDPGGQGCEGITPLHDALNCGHFEVAELLLERGASVTLRTRKGLSPLETLQQWVKLYRRDLDLETRQKARAMEMLLQAAASGQDPHSSQAFHTPSSLLFDPETS
notes: as for B2
In the case of B7, in assay [6], the binding result is listed as “no binding”.
As for AKRHRKVLR-NH2 [Ala-Lys-Arg-His-Arg-Lys-Val-Leu-Arg-NH2, Example 12], the Kd in assay [1] was determined as 2200 nM; in assay [3] it was 1950 nM. In assay [2], the “% P1L1” value was 62.6%.
Take LGKGGAKRHRKVLRDNI (C-terminal amide (-NH2), Bought from JPT Peptide Technologies): the Kd in assay [7] was 77 nM.
